Data reported in the supplement of paper PMC10065799, “High-throughput profiling of sequence recognition by tyrosine kinases and SH2 domains using bacterial peptide display” (eLife, 2023).

What was measured:
AncSZ = test: phosphorylation enrichment, bacterial display (enrichment ratio); higher = better substrate or ligand; peptides without Tyr show the background
EPHB1 = EPHB1 (UniProt P54762); test: as above
EPHB2 = EPHB2 (UniProt P29323); test: as above
FGFR1 = FGFR1 (UniProt P11362); test: as above
Sequence of FGFR1 (P11362 whole entry, looked up): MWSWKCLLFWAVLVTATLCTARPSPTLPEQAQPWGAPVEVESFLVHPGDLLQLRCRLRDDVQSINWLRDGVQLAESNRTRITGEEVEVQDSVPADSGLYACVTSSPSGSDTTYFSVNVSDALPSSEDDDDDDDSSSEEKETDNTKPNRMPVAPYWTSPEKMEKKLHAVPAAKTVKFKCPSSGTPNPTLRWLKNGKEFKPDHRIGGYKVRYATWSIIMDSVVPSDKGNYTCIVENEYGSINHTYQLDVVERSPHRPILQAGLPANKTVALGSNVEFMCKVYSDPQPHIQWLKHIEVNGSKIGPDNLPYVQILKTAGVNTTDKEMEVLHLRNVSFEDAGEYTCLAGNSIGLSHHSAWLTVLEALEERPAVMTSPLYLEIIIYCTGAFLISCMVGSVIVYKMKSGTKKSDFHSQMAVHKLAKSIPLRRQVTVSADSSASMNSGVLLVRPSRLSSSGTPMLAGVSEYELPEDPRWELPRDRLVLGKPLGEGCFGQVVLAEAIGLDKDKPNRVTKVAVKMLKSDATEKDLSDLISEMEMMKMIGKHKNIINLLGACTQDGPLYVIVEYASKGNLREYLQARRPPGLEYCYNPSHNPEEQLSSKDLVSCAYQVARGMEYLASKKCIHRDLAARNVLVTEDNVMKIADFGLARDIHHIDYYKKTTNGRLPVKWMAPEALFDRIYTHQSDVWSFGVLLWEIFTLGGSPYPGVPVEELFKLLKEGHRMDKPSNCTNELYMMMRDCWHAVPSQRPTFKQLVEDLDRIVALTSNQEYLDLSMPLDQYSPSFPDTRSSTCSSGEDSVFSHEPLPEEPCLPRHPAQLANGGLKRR

FGFR3 = FGFR3 (UniProt P22607); test: as above
Sequence of FGFR3 (P22607 whole entry, looked up): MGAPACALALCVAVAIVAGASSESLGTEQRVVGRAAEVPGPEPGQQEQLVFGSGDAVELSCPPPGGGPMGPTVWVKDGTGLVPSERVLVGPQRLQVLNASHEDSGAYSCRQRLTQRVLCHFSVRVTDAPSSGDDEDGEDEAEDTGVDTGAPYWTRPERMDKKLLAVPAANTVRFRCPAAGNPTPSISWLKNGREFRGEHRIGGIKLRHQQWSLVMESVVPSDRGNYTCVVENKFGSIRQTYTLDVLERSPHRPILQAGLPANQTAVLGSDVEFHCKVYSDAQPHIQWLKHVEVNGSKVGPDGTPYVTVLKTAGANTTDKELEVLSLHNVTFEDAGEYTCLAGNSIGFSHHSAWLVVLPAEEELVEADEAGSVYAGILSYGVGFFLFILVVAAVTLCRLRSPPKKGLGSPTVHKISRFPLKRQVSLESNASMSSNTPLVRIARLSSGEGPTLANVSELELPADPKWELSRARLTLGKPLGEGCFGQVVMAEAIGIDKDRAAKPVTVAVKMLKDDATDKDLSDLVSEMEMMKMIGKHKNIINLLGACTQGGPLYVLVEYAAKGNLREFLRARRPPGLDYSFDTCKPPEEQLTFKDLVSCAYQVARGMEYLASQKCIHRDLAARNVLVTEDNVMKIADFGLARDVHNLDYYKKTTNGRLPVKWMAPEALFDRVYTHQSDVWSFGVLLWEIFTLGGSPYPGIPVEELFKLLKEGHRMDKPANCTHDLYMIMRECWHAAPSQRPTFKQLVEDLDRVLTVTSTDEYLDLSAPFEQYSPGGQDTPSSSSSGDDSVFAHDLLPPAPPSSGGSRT

Fer (mouse) = test: as above
Fes = Fes (UniProt P07332); test: as above
Fyn = Fyn (UniProt P06241); test: as above
Sequence of Fyn (P06241 whole entry, looked up): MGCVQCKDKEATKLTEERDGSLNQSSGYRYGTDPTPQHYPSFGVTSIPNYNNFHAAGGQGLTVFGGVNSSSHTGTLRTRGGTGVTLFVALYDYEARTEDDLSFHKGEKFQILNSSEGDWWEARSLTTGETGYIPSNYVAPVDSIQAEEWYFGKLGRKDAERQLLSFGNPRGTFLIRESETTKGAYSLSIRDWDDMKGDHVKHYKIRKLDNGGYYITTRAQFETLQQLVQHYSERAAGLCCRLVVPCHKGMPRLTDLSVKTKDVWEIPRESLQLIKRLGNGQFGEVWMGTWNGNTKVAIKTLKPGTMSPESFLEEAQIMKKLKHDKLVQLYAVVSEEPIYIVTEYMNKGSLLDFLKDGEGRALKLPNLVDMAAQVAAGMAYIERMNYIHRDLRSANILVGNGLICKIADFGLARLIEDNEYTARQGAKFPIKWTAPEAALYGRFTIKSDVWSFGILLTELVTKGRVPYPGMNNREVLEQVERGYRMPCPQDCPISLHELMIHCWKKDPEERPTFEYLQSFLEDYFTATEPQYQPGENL

Hck = Hck (UniProt P08631); test: as above
Sequence of Hck (P08631 whole entry, looked up): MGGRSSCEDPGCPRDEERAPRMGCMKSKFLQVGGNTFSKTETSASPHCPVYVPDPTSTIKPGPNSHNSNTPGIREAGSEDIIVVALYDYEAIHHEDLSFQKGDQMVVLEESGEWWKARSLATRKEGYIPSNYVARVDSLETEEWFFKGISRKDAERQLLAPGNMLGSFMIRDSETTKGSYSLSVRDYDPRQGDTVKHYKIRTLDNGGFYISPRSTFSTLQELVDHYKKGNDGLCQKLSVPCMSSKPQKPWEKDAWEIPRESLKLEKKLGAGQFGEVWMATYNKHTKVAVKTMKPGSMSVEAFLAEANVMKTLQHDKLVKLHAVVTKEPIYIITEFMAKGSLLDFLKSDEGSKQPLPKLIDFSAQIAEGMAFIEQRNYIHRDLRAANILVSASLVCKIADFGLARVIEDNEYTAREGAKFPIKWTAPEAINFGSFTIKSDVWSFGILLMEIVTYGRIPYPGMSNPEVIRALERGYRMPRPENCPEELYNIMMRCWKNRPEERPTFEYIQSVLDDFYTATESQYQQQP

Jak2 = Jak2 (UniProt O60674); test: as above
Sequence of Jak2 (O60674 whole entry, looked up): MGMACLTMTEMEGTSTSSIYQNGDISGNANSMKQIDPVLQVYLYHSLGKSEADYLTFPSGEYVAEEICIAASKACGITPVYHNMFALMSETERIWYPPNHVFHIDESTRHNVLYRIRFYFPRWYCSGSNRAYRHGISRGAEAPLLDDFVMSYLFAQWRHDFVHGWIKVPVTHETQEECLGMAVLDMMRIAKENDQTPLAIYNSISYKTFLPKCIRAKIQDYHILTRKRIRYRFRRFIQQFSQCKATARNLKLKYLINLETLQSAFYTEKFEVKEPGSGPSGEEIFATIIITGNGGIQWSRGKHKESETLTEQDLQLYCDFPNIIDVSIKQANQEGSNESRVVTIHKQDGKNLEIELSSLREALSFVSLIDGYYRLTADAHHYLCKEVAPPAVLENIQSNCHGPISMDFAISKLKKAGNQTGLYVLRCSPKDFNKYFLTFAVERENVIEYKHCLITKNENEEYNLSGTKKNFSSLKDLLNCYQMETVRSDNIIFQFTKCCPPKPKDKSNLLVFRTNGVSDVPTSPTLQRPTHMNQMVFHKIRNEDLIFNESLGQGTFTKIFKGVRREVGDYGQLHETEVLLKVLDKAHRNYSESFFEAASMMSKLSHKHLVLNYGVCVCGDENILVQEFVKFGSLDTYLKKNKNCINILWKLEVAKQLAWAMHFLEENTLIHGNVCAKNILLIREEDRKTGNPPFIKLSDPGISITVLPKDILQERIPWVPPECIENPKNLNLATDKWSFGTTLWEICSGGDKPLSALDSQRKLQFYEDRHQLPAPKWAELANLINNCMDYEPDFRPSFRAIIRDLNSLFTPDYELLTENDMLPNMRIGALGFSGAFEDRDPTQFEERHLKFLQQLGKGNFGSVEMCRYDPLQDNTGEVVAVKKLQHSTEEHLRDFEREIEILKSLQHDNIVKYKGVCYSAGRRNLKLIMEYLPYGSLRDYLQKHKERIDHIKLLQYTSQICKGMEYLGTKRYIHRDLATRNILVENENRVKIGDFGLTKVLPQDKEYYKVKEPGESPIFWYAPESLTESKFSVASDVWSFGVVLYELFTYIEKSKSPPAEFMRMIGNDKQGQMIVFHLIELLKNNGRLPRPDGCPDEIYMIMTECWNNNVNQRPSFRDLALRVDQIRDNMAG

MERTK = MERTK (UniProt Q12866); test: as above
Sequence of MERTK (Q12866 whole entry, looked up): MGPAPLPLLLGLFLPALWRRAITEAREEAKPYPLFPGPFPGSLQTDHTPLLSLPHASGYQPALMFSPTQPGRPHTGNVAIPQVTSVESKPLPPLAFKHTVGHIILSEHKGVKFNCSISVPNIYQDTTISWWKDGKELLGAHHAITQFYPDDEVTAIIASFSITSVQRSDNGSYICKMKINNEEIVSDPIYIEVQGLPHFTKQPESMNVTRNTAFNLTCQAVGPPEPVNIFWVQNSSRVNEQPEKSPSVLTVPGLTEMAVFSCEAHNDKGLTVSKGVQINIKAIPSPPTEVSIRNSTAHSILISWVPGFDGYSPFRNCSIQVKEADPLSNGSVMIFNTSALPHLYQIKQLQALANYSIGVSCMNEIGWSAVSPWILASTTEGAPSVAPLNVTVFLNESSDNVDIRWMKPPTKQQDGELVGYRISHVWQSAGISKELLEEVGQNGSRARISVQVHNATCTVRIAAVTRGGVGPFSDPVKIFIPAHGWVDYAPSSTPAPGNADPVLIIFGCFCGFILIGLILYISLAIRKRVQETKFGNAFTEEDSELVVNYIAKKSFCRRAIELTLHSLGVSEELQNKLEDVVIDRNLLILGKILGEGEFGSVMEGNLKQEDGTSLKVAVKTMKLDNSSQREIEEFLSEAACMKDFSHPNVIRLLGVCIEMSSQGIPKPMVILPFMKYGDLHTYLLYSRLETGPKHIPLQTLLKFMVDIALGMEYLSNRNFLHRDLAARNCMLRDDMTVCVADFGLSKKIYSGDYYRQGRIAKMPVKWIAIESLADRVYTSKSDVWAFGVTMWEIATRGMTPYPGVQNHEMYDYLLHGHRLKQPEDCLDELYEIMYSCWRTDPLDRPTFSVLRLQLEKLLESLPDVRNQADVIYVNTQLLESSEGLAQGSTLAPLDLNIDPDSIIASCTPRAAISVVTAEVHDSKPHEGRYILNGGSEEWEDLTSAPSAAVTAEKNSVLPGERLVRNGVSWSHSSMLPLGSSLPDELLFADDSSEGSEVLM

c-Abl (mouse) = test: as above
c-Src = test: as above
Grb2 SH2 = Grb2 SH2 (UniProt P62993); test: SH2 binding enrichment of the phosphorylated peptide, bacterial display (enrichment ratio); higher = better substrate or ligand; peptides without Tyr show the background
Sequence of Grb2 SH2 (P62993 whole entry, looked up): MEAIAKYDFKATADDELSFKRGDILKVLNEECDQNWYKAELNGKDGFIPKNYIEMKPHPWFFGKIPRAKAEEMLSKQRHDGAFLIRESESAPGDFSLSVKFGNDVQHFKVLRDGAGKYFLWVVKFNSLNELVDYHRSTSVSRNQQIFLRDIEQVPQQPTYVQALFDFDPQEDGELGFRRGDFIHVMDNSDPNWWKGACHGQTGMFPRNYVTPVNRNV

SHP2-C SH2 = test: as above
c-Src SH2 = test: as above
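Wherever SH2 binding enrichment of the phosphorylated peptide, bacterial display is given: peptide library displayed on the E. coli surface as eCPX fusions, selected cells deep-sequenced, score is each peptide's frequency after selection divided by its frequency in the input.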
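Wherever phosphorylation enrichment, bacterial display is given: 11-residue human phosphosite peptides and single-mutation variants displayed on the E. coli surface, counted by deep sequencing, each peptide's frequency after selection divided by its frequency in the unselected input library; frequency after pTyr selection over input frequency; kinase dosed for 20-30% of maximal phosphorylation in three min.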

Sequence | phosphorylation enrichment (AncSZ) | phosphorylation enrichment (EPHB1) | phosphorylation enrichment (EPHB2) | phosphorylation enrichment (FGFR1) | phosphorylation enrichment (FGFR3) | phosphorylation enrichment (Fer (mouse)) | phosphorylation enrichment (Fes) | phosphorylation enrichment (Fyn) | phosphorylation enrichment (Hck) | phosphorylation enrichment (Jak2) | phosphorylation enrichment (MERTK) | phosphorylation enrichment (c-Abl (mouse)) | phosphorylation enrichment (c-Src) | SH2 binding enrichment (Grb2 SH2) | SH2 binding enrichment (SHP2-C SH2) | SH2 binding enrichment (c-Src SH2)
MGGSLYFSFPD [HIKESHI_Y55_V54L_YF] | 2.27 | 7.73 | 5.46 | 5.92 | 5.74 | 0.871 | 1.8 | 5.08 | 4.95 | 3.96 | 9.75 | 1.61 | 5.75 | 0.926 | 0.591 | 0.444
MGRVNYGAYIN [GLB1_Y485] | 0.701 | 0.504 | 0.486 | 0.383 | 0.499 | 0.34 | 0.617 | 0.463 | 0.395 | 0.54 | 0.315 | 0.587 | 0.393 | 4.77 | 1.19 | 1.22
MKGDFYRSLAE [YWHAG_Y131_Y133S_YF] | 0.697 | 0.334 | 0.437 | 0.422 | 0.52 | 0.467 | 0.73 | 0.404 | 0.49 | 0.811 | 0.37 | 0.585 | 0.441 | 0.758 | 0.551 | 0.352
MKKMHYVDPDR [ST3GAL5_Y99_H104R] | 0.407 | 0.321 | 0.388 | 0.331 | 0.521 | 0.346 | 0.495 | 0.395 | 0.349 | 0.534 | 0.294 | 0.436 | 0.322 | 0.879 | 0.76 | 0.567
MLEVPYVDHNS [F10_Y384_R387H] | 1.2 | 0.594 | 0.51 | 0.516 | 0.786 | 0.583 | 1.42 | 0.416 | 0.618 | 1.24 | 0.424 | 0.817 | 0.506 | 0.707 | 0.547 | 0.407
MPLTEYLKRIK [CNGB3_Y200] | 0.621 | 0.266 | 0.365 | 0.381 | 0.462 | 0.345 | 0.616 | 0.34 | 0.365 | 0.613 | 0.379 | 0.525 | 0.325 | 1.01 | 0.75 | 0.489
MPQNEYIELHR [NSA2_Y6] | 0.9 | 0.696 | 0.673 | 1.95 | 1.03 | 0.325 | 0.767 | 0.444 | 0.743 | 0.7 | 0.338 | 0.497 | 0.66 | 0.808 | 0.767 | 0.601
MQMEEYRGRVE [BTNL2_Y91_W94R] | 0.755 | 0.421 | 0.39 | 0.411 | 0.539 | 0.424 | 0.874 | 0.379 | 0.459 | 0.573 | 0.383 | 0.458 | 0.437 | 0.785 | 0.871 | 0.408
MRALIYNSSTV [PLEKHA7_Y243_A248V] | 0.669 | 0.447 | 0.657 | 0.447 | 0.57 | 0.51 | 0.824 | 0.714 | 0.754 | 0.726 | 0.405 | 0.872 | 0.77 | 0.674 | 0.605 | 0.463
MSRNLYSGDCY [DDR2_Y736_Y740C] | 0.985 | 2.11 | 2.35 | 0.951 | 1.15 | 0.811 | 0.993 | 1.96 | 2.27 | 0.69 | 4.75 | 0.581 | 1.49 | 0.796 | 0.614 | 0.746
MSSHHCDFKKF [ZNF445_Y428_Y428C_YF] | 0.47 | 0.401 | 0.393 | 0.437 | 0.417 | 0.43 | 0.487 | 0.392 | 0.452 | 0.519 | 0.474 | 0.529 | 0.415 | 0.811 | 0.759 | 0.449
MSSHHCDYKKY [ZNF445_Y428_Y428C] | 0.633 | 0.366 | 0.385 | 0.965 | 0.437 | 0.388 | 0.661 | 0.472 | 0.372 | 0.475 | 0.432 | 0.517 | 0.452 | 0.962 | 0.665 | 0.553
MSSLFYANTLF [HOXB7_Y6_YF] | 0.906 | 1.14 | 0.834 | 0.656 | 0.735 | 3.42 | 1.19 | 0.905 | 0.905 | 0.859 | 3.91 | 0.693 | 0.883 | 0.905 | 0.861 | 0.509
MTRDIYETDYY [INSR_Y1185] | 2.66 | 1.39 | 1.34 | 1.89 | 1.93 | 0.831 | 1.13 | 1.63 | 1.39 | 1.02 | 0.746 | 0.712 | 2.42 | 0.716 | 0.6 | 0.744
MWGSDYVHLSR [MAP3K4_Y582_Q584H] | 0.951 | 3.2 | 1.47 | 3.31 | 1.82 | 0.417 | 0.693 | 0.472 | 0.486 | 1.72 | 0.53 | 0.804 | 0.471 | 0.914 | 0.746 | 0.568
NACGLYHKMNG [GATA5_Y216] | 0.795 | 0.508 | 0.447 | 0.581 | 0.567 | 0.673 | 1.03 | 0.371 | 0.533 | 0.798 | 0.624 | 0.525 | 0.523 | 0.81 | 0.945 | 1.95
NAMRRHIEEFQ [MNS1_Y244_Y244H] | 0.634 | 0.398 | 0.411 | 0.348 | 0.497 | 0.346 | 0.741 | 0.367 | 0.366 | 0.672 | 0.469 | 0.628 | 0.347 | 0.676 | 0.636 | 0.435
